Test results from US20230174598A1 (UNIVERSITY OF FLORIDA RESEARCH FOUNDATION, published 2023).
Where a chain is given by its changes, count along the chain named. Numbers in names are those of the source.

B1: E361G arrestin-1 variant (bovine) (other)
chain: MHHHHHHKANKPAPNHVIFKKISRDKSVTIYLGKRDYIDHVERVEPVDGVVLVDPELVKGKRVYVSLTCAFRYGQEDIDVMGLSFRRDLYFSQVQVFPPVGASGATTRLQESLIKKLGANTYPFLLTFPDYLPCSVMLQPAPQDVGKSCGVDFEIKAFATHSTDVEEDKIPKKSSVRLLIRKVQHAPRDMGPQPRAEASWQFFMSDKPLRLAVSLSKEIYYHGEPIPVTVAVTNSTEKTVKKIKVLVEQVTNVVLYSSDYYIKTVAAEEAQEKVPPNSSLTKTLTLVPLLANNRERRGIALDGKIKHEDTNLASSTIIKEGIDKTVMGILVSYQIKVKLTVSGLLGELTSSEVATEVPFRLMHPQPGDPDTAKESFQDENFVFEEFARQNLKDAGEYKEEKTDQEAAMDE
B2: E361A arrestin-1 variant (bovine) (other)
chain: B1 chain with G367A
B3: D362G arrestin-1 variant (bovine) (other)
chain: B1 chain with G367E, D368G
B4: D362A arrestin-1 variant (bovine) (other)
chain: B1 chain with G367E, D368A
B5: E361A/D362A arrestin-1 variant (bovine) (other)
chain: B1 chain with G367A, D368A
B6: E50C arrestin-1 (bovine, His(6), C63A/C143A) labeled with monobromobimane (other)
chain: B1 chain with E56C, C69A, C149A, G367E
modifications: monobromobimane (mBBr) on Cys 50
notes: Cysteine-substitution mutant, made in Pichia pastoris
B7: E218C arrestin-1 (bovine, His(6), C63A/C143A) labeled with monobromobimane (other)
chain: B1 chain with C69A, C149A, E224C, G367E
modifications: monobromobimane (mBBr) on Cys 218
notes: as for B6
B8: E302C arrestin-1 (bovine, His(6), C63A/C143A) labeled with monobromobimane (other)
chain: B1 chain with C69A, C149A, E308C, G367E
modifications: monobromobimane (mBBr) on Cys 302
notes: as for B6
B9: K28C arrestin-1 (bovine, His(6), C63A/C143A) labeled with monobromobimane (other)
chain: B1 chain with K34C, C69A, C149A, G367E
modifications: monobromobimane (mBBr) on Cys 28
notes: as for B6
B10: K53C arrestin-1 (bovine, His(6), C63A/C143A) labeled with monobromobimane (other)
chain: B1 chain with K59C, C69A, C149A, G367E
modifications: monobromobimane (mBBr) on Cys 53
notes: as for B6
B11: K166C arrestin-1 (bovine, His(6), C63A/C143A) labeled with monobromobimane (other)
chain: B1 chain with C69A, C149A, K172C, G367E
modifications: monobromobimane (mBBr) on Cys 166
notes: as for B6
B12: K267C arrestin-1 (bovine, His(6), C63A/C143A) labeled with monobromobimane (other)
chain: B1 chain with C69A, C149A, K273C, G367E
modifications: monobromobimane (mBBr) on Cys 267
notes: as for B6
B13: R37C arrestin-1 (bovine, His(6), C63A/C143A) labeled with monobromobimane (other)
chain: B1 chain with R43C, C69A, C149A, G367E
modifications: monobromobimane (mBBr) on Cys 37
notes: as for B6
B14: R189C arrestin-1 (bovine, His(6), C63A/C143A) labeled with monobromobimane (other)
chain: B1 chain with C69A, C149A, R195C, G367E
modifications: monobromobimane (mBBr) on Cys 189
notes: as for B6
B15: S210C arrestin-1 (bovine, His(6), C63A/C143A) labeled with monobromobimane (other)
chain: B1 chain with C69A, C149A, S216C, G367E
modifications: monobromobimane (mBBr) on Cys 210
notes: as for B6
B16: V94C arrestin-1 (bovine, His(6), C63A/C143A) labeled with monobromobimane (other)
chain: B1 chain with C69A, V100C, C149A, G367E
modifications: monobromobimane (mBBr) on Cys 94
notes: as for B6
B17: V281C arrestin-1 (bovine, His(6), C63A/C143A) labeled with monobromobimane (other)
chain: B1 chain with C69A, C149A, V287C, G367E
modifications: monobromobimane (mBBr) on Cys 281
notes: as for B6

Biological target: T1, bovine enolase-1 (bovine, UniProt Q9XSJ4 1-434, AlexaFluor-546 maleimide on reactive cysteines (pulldown assay only; unlabeled in the quench and activity assays))
T1 sequence (Q9XSJ4 whole entry): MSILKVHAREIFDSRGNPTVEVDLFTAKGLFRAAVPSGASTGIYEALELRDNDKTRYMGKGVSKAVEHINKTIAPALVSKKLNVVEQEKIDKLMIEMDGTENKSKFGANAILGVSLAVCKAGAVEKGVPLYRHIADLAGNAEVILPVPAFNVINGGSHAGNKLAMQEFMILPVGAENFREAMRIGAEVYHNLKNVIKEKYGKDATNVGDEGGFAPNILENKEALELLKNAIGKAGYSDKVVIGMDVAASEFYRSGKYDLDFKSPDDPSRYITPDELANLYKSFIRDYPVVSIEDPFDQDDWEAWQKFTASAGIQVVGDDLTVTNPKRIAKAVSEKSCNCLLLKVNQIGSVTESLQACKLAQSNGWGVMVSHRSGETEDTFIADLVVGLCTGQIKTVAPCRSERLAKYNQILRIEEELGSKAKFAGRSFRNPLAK
Assay: cell-based or functional assay

First: B1
Second: B2
The “% inhibition of enolase-1 catalytic activity” value (from here on “% inhibition”) of the first is lower: 18.3% for the first, 21.1% for the second.

Going from B3 to B4, the “% inhibition” value rises from 20.7% to 22.2%.

B5 was tested, and the “% inhibition” value was 9%.

Biological target: T1, bovine enolase-1
Assay: KI quench protection of mBBr-labeled arrestin-1; 0.25 µM arrestin-1, 5 µM (20-fold) enolase-1
Protocol: C. Quenching assay. Cysteine mutants of arrestin-1 were labeled with monobromobimane (mBBr, ThermoFisher), reacting the arrestin-1 protein with 100-fold molar excess of the fluorescent label for two hours at room temperature. The unreacted label was removed by dialyzing against three sequential changes of 500-volumes of LAP200 buffer. […] Fluorescence quenching of the mBBr fluorophore was performed using 0.25 μM mBBr-labeled arrestin-1 with 100 mM potassium iodide in the presence or absence of 5 μM bovine enolase-1 that had been heterologously expressed and purified as previously described for arrestin-1, monitoring fluorescence emission at 470 nm. To determine the degree to which enolase-1 shielded a residue from quenching by potassium iodide, a protection factor was calculated as follows: […]
C. Mapping interaction of arrestin-1 with enolase-1. […] The fluorescence emission of the mBBr-labeled arrestin-1 with and without potassium iodide was measured to determine the range of quenching by KI. The fluorescence emission quench by KI with and without enolase-1 was then measured. A quench protection factor was calculated as described in the experimental procedures (Table 2). […] When mapped onto the surface of the arrestin-1 structure, these residues largely mapped to a single surface along the “bottom” of the arrestin protein (FIG. 2B).

Compared with B6, B7 is higher in “F(A+E+K) (fluorescence with enolase-1 and KI)” value: 8140 for the first, 9500 for the second.

First: B8
Second: B9
The “F(A+E+K) (fluorescence with enolase-1 and KI)” value of the first is lower: 3680 for the first, 17200 for the second.

First: B10
Second: B11
The “F(A+E+K) (fluorescence with enolase-1 and KI)” value of the first is higher: 11000 for the first, 1040 for the second.

First: B12
Second: B13
The “F(A+E+K) (fluorescence with enolase-1 and KI)” value of the first is lower: 2850 for the first, 16600 for the second.

First: B14
Second: B15
The “F(A+E+K) (fluorescence with enolase-1 and KI)” value of the first is higher: 11100 for the first, 8720 for the second.

Compared with B16, B17 is higher in “F(A+E+K) (fluorescence with enolase-1 and KI)” value: 1900 for the first, 2440 for the second.

First: B6
Second: B7
The “Pf (quench protection factor)” value of the first is lower: 0.297 for the first, 1.08 for the second.

Compared with B8, B9 is lower in “Pf (quench protection factor)” value: 0.772 for the first, 0.732 for the second.

Compared with B10, B11 is lower in “Pf (quench protection factor)” value: 0.314 for the first, 0.026 for the second.

Going from B12 to B13, the “Pf (quench protection factor)” value rises from 0.484 to 0.564.

Compared with B14, B15 is higher in “Pf (quench protection factor)” value: 0.467 for the first, 0.618 for the second.

First: B16
Second: B17
The “Pf (quench protection factor)” value of the first is lower: 0.062 for the first, 0.269 for the second.
